B1: RSE.Fc (Fc fusion, UniProt Q06418 41-428, looked up)
chain: AGLKLMGAPVKLTVSQGQPVKLNCSVEGMEEPDIQWVKDGAVVQNLDQLYIPVSEQHWIGFLSLKSVERSDAGRYWCQVEDGGETEISQPVWLTVEGVPFFTVEPKDLAVPPNAPFQLSCEAVGPPEPVTIVWWRGTTKIGGPAPSPSVLNVTGVTQSTMFSCEAHNLKGLASSRTATVHLQALPAAPFNITVTKLSSSNASVAWMPGADGRALLQSCTVQVTQAPGGWEVLAVVVPVPPFTCLLRDLVPATNYSLRVRCANALGPSPYADWVPFQTKGLAPASAPQNLHAIRTDSGLILEWEEVIPEAPLEGPLGPYKLSWVQDNGTQDELTVEGTRANLTGWDPQKDLIVRVCVSNAVGCGPWSQPLVVSSHDRAGQQGPPHSRTS
notes: Control; also called control fusion protein; control receptor RSE.Fc; not shown: Fc part

Tests used:
ErbB4.Fc = ErbB4.Fc (UniProt Q15303); experiment: displacement of ^125I-NRG3^EGF.Fc from immobilized ErbB4.Fc, 96-well plate
Chain of ErbB4.Fc (Q15303 26-651 limits assumed): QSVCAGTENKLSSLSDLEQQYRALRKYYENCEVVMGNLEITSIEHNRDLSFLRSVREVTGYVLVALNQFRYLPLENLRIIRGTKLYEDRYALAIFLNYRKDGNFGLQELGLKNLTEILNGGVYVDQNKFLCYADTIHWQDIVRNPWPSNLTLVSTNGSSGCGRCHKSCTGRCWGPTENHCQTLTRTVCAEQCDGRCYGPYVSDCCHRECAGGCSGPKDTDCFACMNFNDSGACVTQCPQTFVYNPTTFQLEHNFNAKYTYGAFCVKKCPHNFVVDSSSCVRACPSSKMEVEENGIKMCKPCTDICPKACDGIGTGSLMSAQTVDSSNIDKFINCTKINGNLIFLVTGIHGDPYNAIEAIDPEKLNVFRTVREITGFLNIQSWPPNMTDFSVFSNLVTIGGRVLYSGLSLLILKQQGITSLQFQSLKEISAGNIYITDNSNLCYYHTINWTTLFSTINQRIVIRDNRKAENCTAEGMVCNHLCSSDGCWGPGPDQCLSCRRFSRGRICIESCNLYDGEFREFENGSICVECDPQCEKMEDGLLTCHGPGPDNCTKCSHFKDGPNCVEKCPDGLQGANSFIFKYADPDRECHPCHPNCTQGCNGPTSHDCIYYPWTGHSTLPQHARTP

human ErbB2 receptor = molecular target: T1, human ErbB2 receptor (human, UniProt P04626 23-1255); experiment: FACS on K562^erbB2 cells
T1 construct: whole, on cells; also called HER2; K562^erbB2 cells

human ErbB3 receptor = molecular target: T2, human ErbB3 receptor (human, UniProt P21860 20-1342); experiment: FACS on K562^erbB3 cells
T2 construct: whole, on cells; also called HER3; K562^erbB3 cells
T2 sequence (P21860 20-1342): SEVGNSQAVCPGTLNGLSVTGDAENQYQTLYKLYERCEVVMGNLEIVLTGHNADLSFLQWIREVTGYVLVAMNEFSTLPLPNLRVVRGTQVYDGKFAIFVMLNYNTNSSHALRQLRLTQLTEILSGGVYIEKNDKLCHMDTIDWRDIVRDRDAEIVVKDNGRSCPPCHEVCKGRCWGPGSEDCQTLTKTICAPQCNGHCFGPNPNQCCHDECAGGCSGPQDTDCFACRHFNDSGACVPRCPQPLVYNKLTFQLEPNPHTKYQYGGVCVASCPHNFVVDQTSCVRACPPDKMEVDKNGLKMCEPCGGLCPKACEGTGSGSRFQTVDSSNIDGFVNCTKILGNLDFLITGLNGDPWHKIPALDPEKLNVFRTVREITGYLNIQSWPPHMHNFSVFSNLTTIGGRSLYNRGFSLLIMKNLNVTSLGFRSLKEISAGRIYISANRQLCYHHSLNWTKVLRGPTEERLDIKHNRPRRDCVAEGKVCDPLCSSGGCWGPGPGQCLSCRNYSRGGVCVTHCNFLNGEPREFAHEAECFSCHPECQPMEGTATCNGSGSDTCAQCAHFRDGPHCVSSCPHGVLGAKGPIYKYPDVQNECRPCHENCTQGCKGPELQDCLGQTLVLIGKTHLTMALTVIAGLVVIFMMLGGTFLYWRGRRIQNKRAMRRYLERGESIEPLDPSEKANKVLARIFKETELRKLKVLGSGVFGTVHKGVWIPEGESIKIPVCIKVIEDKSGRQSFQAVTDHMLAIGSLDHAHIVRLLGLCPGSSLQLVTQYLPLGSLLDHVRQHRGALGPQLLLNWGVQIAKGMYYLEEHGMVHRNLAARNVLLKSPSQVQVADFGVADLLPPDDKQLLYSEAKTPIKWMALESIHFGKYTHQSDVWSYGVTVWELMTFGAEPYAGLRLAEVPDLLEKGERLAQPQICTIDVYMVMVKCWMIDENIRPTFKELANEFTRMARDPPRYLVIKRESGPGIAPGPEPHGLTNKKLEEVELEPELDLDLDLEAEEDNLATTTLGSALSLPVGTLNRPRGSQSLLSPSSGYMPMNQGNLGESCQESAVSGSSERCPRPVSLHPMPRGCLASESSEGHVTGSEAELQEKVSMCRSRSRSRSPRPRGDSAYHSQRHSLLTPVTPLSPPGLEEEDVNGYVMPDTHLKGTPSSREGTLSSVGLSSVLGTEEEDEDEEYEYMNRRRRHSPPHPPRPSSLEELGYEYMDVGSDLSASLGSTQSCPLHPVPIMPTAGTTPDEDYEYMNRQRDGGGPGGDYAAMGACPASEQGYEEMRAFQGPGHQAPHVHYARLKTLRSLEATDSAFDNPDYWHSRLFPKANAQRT

human ErbB4 receptor = molecular target: T3, human ErbB4 receptor (human, UniProt Q15303 26-1308); experiment: FACS on K562^erbB4 cells
T3 construct: whole, on cells; also called HER4; K562^erbB4 cells
T3 sequence (Q15303 26-1308): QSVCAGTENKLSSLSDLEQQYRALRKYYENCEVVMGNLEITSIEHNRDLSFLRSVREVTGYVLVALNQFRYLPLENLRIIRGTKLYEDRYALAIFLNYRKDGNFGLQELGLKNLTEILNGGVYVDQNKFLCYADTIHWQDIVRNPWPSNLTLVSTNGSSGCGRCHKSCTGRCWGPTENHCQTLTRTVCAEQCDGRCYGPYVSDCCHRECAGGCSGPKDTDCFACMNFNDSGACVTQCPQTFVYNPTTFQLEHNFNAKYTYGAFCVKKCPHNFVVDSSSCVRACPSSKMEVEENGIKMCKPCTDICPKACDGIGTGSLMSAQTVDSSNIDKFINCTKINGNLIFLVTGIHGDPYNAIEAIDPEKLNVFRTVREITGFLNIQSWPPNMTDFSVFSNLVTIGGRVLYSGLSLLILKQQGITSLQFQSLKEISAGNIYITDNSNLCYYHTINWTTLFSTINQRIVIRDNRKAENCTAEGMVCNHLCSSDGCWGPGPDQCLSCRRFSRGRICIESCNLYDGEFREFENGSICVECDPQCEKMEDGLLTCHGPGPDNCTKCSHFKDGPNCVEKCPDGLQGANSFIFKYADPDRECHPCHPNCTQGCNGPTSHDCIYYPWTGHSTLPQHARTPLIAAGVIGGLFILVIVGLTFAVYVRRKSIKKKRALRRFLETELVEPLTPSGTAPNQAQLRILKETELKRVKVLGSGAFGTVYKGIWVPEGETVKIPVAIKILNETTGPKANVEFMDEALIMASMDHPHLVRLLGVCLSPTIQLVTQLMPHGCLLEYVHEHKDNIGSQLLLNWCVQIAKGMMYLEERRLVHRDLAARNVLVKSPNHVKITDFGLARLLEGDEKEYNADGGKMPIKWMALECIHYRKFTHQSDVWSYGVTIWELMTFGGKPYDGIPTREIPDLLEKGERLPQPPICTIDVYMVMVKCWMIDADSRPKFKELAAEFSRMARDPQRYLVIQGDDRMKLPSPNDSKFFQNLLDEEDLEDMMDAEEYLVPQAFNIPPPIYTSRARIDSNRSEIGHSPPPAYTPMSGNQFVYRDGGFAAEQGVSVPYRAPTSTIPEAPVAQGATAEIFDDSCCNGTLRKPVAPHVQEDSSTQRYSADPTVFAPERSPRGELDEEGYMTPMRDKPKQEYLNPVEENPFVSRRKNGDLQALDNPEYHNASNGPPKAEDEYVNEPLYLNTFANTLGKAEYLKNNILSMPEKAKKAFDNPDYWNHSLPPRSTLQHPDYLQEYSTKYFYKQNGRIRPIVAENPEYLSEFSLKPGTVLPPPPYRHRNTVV

Molecule | Ki (ErbB4.Fc) [nM] | binding result (human ErbB2 receptor) | binding result (human ErbB3 receptor) | binding result (human ErbB4 receptor)
NRG1^EGF (rHRGβ1 177-244) (from UniProt Q02297 177-244) (ligand) | 1 | – | – | –
B1 | – | no binding | no binding | no binding

Reference: US20050048622A1 (Genentech, published 2005)
